# Results: article PMC5440694 (Nature Communications, 2017)
# Changes are numbered by the printed parent chain.
# B1: C05 Fab variant IPGSGW displayed on yeast (Fab, V domains shown)
# VH: QVQLQESGGGLVQPGESLRLSCVGSGSSFGESTLSYYAVSWVRQAPGKGLEWLSIINAGGGDIDYADSVEGRFTISRDNSKETLYLQMTNLRVEDTGVYYCAKHMSMQQIPGSGWERADLVGDAFDVWGQGTMVTVSS
# VL: DIQLTQSPSSLSASVGDRVTLTCQASQDIRKFLNWYQQKPGKGPKLLIYDASNLQRGVPSRFSGGGSGTDFTLIISSLQPEDVGTYYCQQYDGLPFTFGGGTKVVIK
# B2: C05 Fab variant WPEIGF displayed on yeast (Fab, V domains shown)
# VH: B1 VH with I110W, G112E, S113I, W115F
# VL: B1 VL
# B3: C05 Fab variant LPSSGW displayed on yeast (Fab, V domains shown)
# VH: B1 VH with I110L, G112S
# VL: B1 VL
# B4: C05 Fab variant VASSGW displayed on yeast (Fab, V domains shown)
# VH: B1 VH with I110V, P111A, G112S
# VL: B1 VL
# B5: C05 Fab variant VVGSGW displayed on yeast (Fab, V domains shown)
# VH: B1 VH with I110V, P111V
# VL: B1 VL
# B6: C05 Fab variant VATSGW displayed on yeast (Fab, V domains shown)
# VH: B1 VH with I110V, P111A, G112T
# VL: B1 VL
# B7: C05 Fab variant VPGAGW displayed on yeast (Fab, V domains shown)
# VH: B1 VH with I110V, S113A
# VL: B1 VL
# B8: C05 Fab variant WYVHLW displayed on yeast (Fab, V domains shown)
# VH: B1 VH with I110W, P111Y, G112V, S113H, G114L
# VL: B1 VL
# B9: C05 Fab variant VASAGW displayed on yeast (Fab, V domains shown)
# VH: B1 VH with I110V, P111A, G112S, S113A
# VL: B1 VL
# B10: C05 Fab variant LPGGGW displayed on yeast (Fab, V domains shown)
# VH: B1 VH with I110L, S113G
# VL: B1 VL
# B11: C05 Fab variant YDPGGW displayed on yeast (Fab, V domains shown)
# VH: B1 VH with I110Y, P111D, G112P, S113G
# VL: B1 VL
# B12: C05 Fab variant VVDSGW displayed on yeast (Fab, V domains shown)
# VH: B1 VH with I110V, P111V, G112D
# VL: B1 VL
# B13: C05 Fab variant YEPAGW displayed on yeast (Fab, V domains shown)
# VH: B1 VH with I110Y, P111E, G112P, S113A
# VL: B1 VL
# B14: C05 Fab variant VVDSGW, in supernatant of transfected 293T cells (Fab, V domains shown)
# VH: B1 VH with I110V, P111V, G112D
# VL: B1 VL
# notes: not shown: His6, C-terminal, kept
# B15: C05 Fab variant VEEAGW, in supernatant of transfected 293T cells (Fab, V domains shown)
# VH: B1 VH with I110V, P111E, G112E, S113A
# VL: B1 VL
# notes: as for B14
# B16: C05 Fab variant VVDAGW, in supernatant of transfected 293T cells (Fab, V domains shown)
# VH: B1 VH with I110V, P111V, G112D, S113A
# VL: B1 VL
# B17: C05 Fab variant VVEAGW, in supernatant of transfected 293T cells (Fab, V domains shown)
# VH: B1 VH with I110V, P111V, G112E, S113A
# VL: B1 VL
# B18: wild-type C05 Fab (VVSAGW), expressed in insect cells (Fab, V domains shown)
# VH: B1 VH with I110V, P111V, G112S, S113A
# VL: B1 VL
# B19: C05 Fab variant VTGSGW, expressed in insect cells (Fab, V domains shown)
# VH: B1 VH with I110V, P111T
# VL: B1 VL
# B20: C05 Fab variant VVSSGW, expressed in insect cells (Fab, V domains shown)
# VH: B1 VH with I110V, P111V, G112S
# VL: B1 VL
# Target: T1, biotinylated HA0 ectodomain of A/Solomon Islands/3/2006 (H1N1) (Influenza A virus A/Solomon …, UniProt A7Y8I1, strain, biotin on the BirA biotinylation site)
# Test: yeast display selection (FACS) with next-generation sequencing
# Settings: one partner purified
row,Binder,binding result
1,B1,binds
2,B2,binds
3,B3,binds
4,B4,binds
5,B5,binds
6,B6,binds
7,B7,binds

# Target: T2, biotinylated HA0 ectodomain of A/Perth/16/2009 (H3N2) (Influenza A virus A/Perth/16/2009 (H3N2), UniProt C6KNH7, strain, biotin on the BirA biotinylation site)
# Test: as above
# Settings: one partner purified
row,Binder,binding result
1,B8,binds
2,B9,binds
3,B10,binds
4,B5,binds
5,B7,binds
6,B11,binds
7,B12,binds
8,B13,binds

# Target: T2, biotinylated HA0 ectodomain of …
# Test: BLI
# Settings: one partner purified
row,Binder,binding result
1,B14,binds
2,B15,binds
3,B16,binds
4,B17,binds

# Target: biotinylated HA0 ectodomain of A/Panama/2007/1999 (H3N2) (Influenza A virus A/Panama/2007/1999 …, UniProt Q1K9M3, strain, biotin on the BirA biotinylation site)
# Test: BLI
# Settings: both partners purified
row,Binder,Kd [nM]
1,B18,926 ± 12.1
2,B19,4340 ± 207
3,B20,1290 ± 71

# Target: biotinylated HA0 ectodomain of A/Beijing/262/1995 (H1N1) (Influenza A virus A/Beijing/262/1995 …, UniProt Q6WG01, strain, biotin on the BirA biotinylation site)
# Test: BLI
# Settings: both partners purified
row,Binder,Kd [nM]
1,B18,23.1 ± 0.6
2,B19,182.3 ± 0.5
3,B20,259 ± 2.8

# Target: T1, biotinylated HA0 ectodomain of …
# Test: BLI
# Settings: both partners purified
row,Binder,Kd [nM]
1,B18,91.4 ± 0.9
2,B19,116 ± 1.9
3,B20,4.6 ± 0.6

# Target: T2, biotinylated HA0 ectodomain of …
# Test: BLI
# Settings: both partners purified
row,Binder,Kd [nM]
1,B18,23.4 ± 0.1
2,B19,125.1 ± 1.2
3,B20,43.7 ± 0.5

# Target: biotinylated HA0 ectodomain of A/New Caledonia/20/1999 (H1N1) (Influenza A virus A/New …, UniProt Q6WG00, strain, biotin on the BirA biotinylation site)
# Test: BLI
# Settings: both partners purified
row,Binder,Kd [nM]
1,B18,6.3 ± 0.1
2,B19,1.1 ± 0.2
3,B20,2.9 ± 0.1
